Test system: MS2 coat protein
Assay: apparent KD of MS2 coat protein; designed switch direction (-1 OFF switch, 1 ON switch): 1; higher = weaker reporter binding
Procedure, shortened: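 Transcription of designed RNA switches on Illumina chips was done by stalled E. coli RNA polymerase. SNAP-549-labelled MS2 coat protein was then titrated in doubling steps from 0.7 or 1.5 nM to 3 µM, with steps of 0.8–1.5 h at the lowest and 10–20 min at the highest concentration. The per-design median over clusters of curve-fitted normalised fluorescence is reported as apparent KD.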

[1] = Eterna round: R95, input ligand: FMN 200 uM
[2] = Eterna round: R95, input ligand: microRNA oligo, concentration not stated
[3] = Eterna round: R95, input ligand: none
[4] = input ligand: microRNA oligo, concentration not stated

Sequence	apparent KD of MS2 coat protein [1] [nM]	apparent KD of MS2 coat protein [2] [nM]	apparent KD of MS2 coat protein [3] [nM]	apparent KD of MS2 coat protein (input ligand: FMN 200 uM) [nM]	apparent KD of MS2 coat protein [4] [nM]	apparent KD of MS2 coat protein (input ligand: none) [nM]
UAGAAACAUGAGGAUCACCCAUGUGGGUUAAACACAGGAUAUCAUGCCACACGAUAGGUAUGAGAAGGGUGACCGU [Sodion] (puzzle: Same State 1)	234	79.5	53.3	–	–	–
GGCAAUAUCACAGGAUAUUGGAAAGGAAGUGUACAAGAAGGGUGAUAGGGCCUCAGCAACAUGAGGAUCACCCAUGUACUGAGC [PowerStrip SSNG 1.10] (Eterna round: R96, puzzle: Same State NG 1)	–	–	–	62.6	13.5	40.8
AGAGGAGGAGCAGGAUAUUCGAAGAAGGACGUGGAAGAAGGGUUCAUGCGAUGACAUGAGGAUCACCCAUGUACCGCGCGAGGA [AK SSNG1-V2-12] (Eterna round: R96, puzzle: Same State NG 1)	–	–	–	63.4	42.6	69
UUUUUUAAGACGAGACAAGCUUUUUGAUCACAUGAGGAUCACCCAUGUCUCGUCUUAUUUUUUUUUUUUUUUUUUUU [BA Sensor hsa-mir-208a - 2 - 3] (puzzle: Sensor for hsa-mir-208a)	21.4	5.76	16.9	–	–	–
GUAGCAUACCGAGGAUAUUCAUAUAAUAACAUGAGGAUCACCCAUGUAUAUAGGCGAAAGCCUUGGGAGAAGGCGGAAUGCUAC [Xeonanis - 20 Mod64] (Eterna round: R96, puzzle: Same State NG 2)	–	–	–	17.1	18.9	31
AUCCUACAUGAGGAUCACCCAUGUGAAGCCUCAAUAGGAUAUGCGUGUGCCUUGGCGCAUGCAGAAGGAUUGAAGC [JL Aveso mod 3] (puzzle: Same State 1)	91	311	967	–	–	–
GCAACUCGUAGAGGAUAUGUCCAGCAAGUAUCACAUGAGGAUCACCCAUGUUCAGCUCUACACCUGCAGAAGGCUAUUAGUGCA [Eternabot solution 46] (Eterna round: R96, puzzle: Same State NG 2)	–	–	–	15.8	13.6	17.2
GUUAAACAUGAGGAUCACCCAUGUCAAUGUAGUCGAGGAUAUGGGCAGCUGUGAGGCGUACUAGAAGGCGAAAAGG [Mat - Same State 1 - Mod of JL - D10] (puzzle: Same State 1)	–	266	–	–	–	–
CGGGUACAUGAGGAUCACCCAUGUGGGAGGGAUGCAGGAUAUGUGGGAGGAGGGUAUGAAACAGAAGGGCAAGGAG [JR_SS!_Sub012] (puzzle: Same State 1)	46.7	48.9	65.5	–	–	–
AUGGGCAUGCUAGGAUAUUAUAGUAGGCAGCAAUGAGAAGGAGUAUCCCGUUGCUAUCACGCACCACAUGAGGAUCACCCAUGU [Eternabot solution 32] (Eterna round: R96, puzzle: Same State NG 1)	–	–	–	24.9	19.5	28.3
GGAGCCGGCACUGAGGAUAUUCAUAUUAAAACAUGAGGAUCACCCAUGUAGGCCAGAAGGCCUUGGGAGAAGGCGGGUCGACUCG [Diqureveri - 1] (puzzle: Same State 2)	29.7	523	371	–	–	–
AUUAAACAUGAGGAUCACCCAUGUCAACAAAGUCGAGGAUAUGGGCAAAUAAAUUAAGAACCAGAAGGCGAAUAAU [salish99_ss1_r3_057] (puzzle: Same State 1)	–	266	–	–	–	–
GAGAGAGGAAGCGAGGAUAUCGUGUGGAGUACAUGAGGAUCACCCAUGUUGUAGGUAGAGGUAGGCGAGAAGGCGCAGGAGAGGU [JR_SS2_Sub097] (puzzle: Same State 2)	34	41.5	58.1	–	–	–
UCUUGGUUUUUGCUCGUUUUUUGUGUUGAACAUGAGGAUCACCCAUGUAUUGUACGGUCCAAUUUAGUAAUGGUCCG [JMF 26] (puzzle: Sensor for hsa-mir-208a)	25.4	13.2	23.6	–	–	–
AUUAAACAUGAGGAUCACCCAUGUCAACAAAGUCGAGGAUAUGGGCAAAUAAAAUAAGAACCAGAAGGCGAUUAAU [salish99_ss1_r3_078] (puzzle: Same State 1)	18.7	109	95.7	–	–	–
AAAAGAAACAUGUACCUGAGUACAUGAAAACAUGAGGAUCACCCAUGUAACAAGUUGGGUGUUUGUCUUAUAAGAAA [JL pocket 5] (Eterna round: R96, puzzle: Sensor for hsa-mir-208a)	–	–	–	68.7	238	231

Sequence	apparent KD of MS2 coat protein [1] [nM]	apparent KD of MS2 coat protein [2] [nM]	apparent KD of MS2 coat protein [3] [nM]	apparent KD of MS2 coat protein (input ligand: FMN 200 uM) [nM]	apparent KD of MS2 coat protein [4] [nM]	apparent KD of MS2 coat protein (input ligand: none) [nM]
UGUUAGUAGUGAGGAUAUACAUACACCUUACAUGAGGAUCACCCAUGUUUUAAUAUUGAUAGUUAGUAGAAGGCACAUGAUUAU [JR_SSNG2_Sub043] (Eterna round: R96, puzzle: Same State NG 2)	–	–	–	22.1	35.8	45.7
AAUUCACGAGCACAGGAUAUGCUUGCCAACACAUGAGGAUCACCCAUGUCGGGCUACGAAUAAGAGCAGAAGGGUGACUCAUGAU [Atesusgela] (puzzle: Same State 2)	16.8	19.2	13.9	–	–	–
UGGUAACAUGAGGAUCACCCAUGUCAAAUGAAUCGAGGAUAUGGGAAUUAACAACACAAACUAGAAGGCGAAUUUG [Altered State 1-8 - Jieux - Same State 1] (puzzle: Same State 1)	293	488	180	–	–	–
UUAAAGAAGUAAGGAUAUACAUGAGGAUCACUCGUAGAAGGUACUAAACAUGAGGAUCACCCAUGUACCGGUCCGUAGACUGGA [Mat - Same State NG 1 - JL mod - D2] (Eterna round: R96, puzzle: Same State NG 1)	–	–	–	960	248	483
UCCUCAGUUUCACAGGAUAUGCGCUGAGUCACAUGAGGAUCACCCAUGUAGACGGAAAAUGUCGGGCAGAAGGGUGAGGCAUAAA [Diretibe] (puzzle: Same State 2)	57.2	117	4570	–	–	–
GUGGUGUAGAUACAGGAUAUGUUGCUCGUAACAUGAGGAUCACCCAUGUAUCUAUGAGAUUAAAUGCAGAAGGGUGCACACCACA [Mat - Same State 2 - Mod of UCT - D72] (puzzle: Same State 2)	24	460	297	–	–	–
CGACACACGGCAGGAUAUGCUUAGCAAAGCUAAGCAGAAGGGCCUCAUGUCGUGGAAACGUGACAUGAGGAUCACCCAUGUUGC [Omei SS(NG)1 Cv1] (Eterna round: R96, puzzle: Same State NG 1)	–	–	–	21	5.59	36.3
ACAUAGGUUUCAGGAUAUGGGUAAAUUCCCAACAUGAGGAUCACCCAUGUCCGUAGGGAUAACAUCCAGAAGGGAAGCCACAUA [MOD Eternabot Solution 1 (Score 87.5)] (Eterna round: R96, puzzle: Same State NG 2)	–	–	–	89.3	100	59.4
GAGAGAGGGCGAGGAUAUUCGGUGAUAAUGAUGGAAGAAGGCGCUGACAUGAGGAUCACCCAUGUGGGAAUAAUCCAGAGAGAG [Parity 15 - Jieux - Same State NG 1] (Eterna round: R96, puzzle: Same State NG 1)	–	–	–	494	130	237
UGUUGUAUUACAGGAUAUCUAAUAUUUUUAUUUAGAGAAGGGUAUUCACAUGAGGAUCACCCAUGUAUAUACGAGGAAGUUGUG [JMF's solution 8] (Eterna round: R96, puzzle: Same State NG 1)	–	–	–	–	24.6	–
GAGUGUGAAUAAGGAUAUAUGAGAGAGUGAGUAAUAGAAGGUAUACAAACAUGAGACAUGAGGAUCACCCAUGUAUCACCCAUG [Something that seems to work] (Eterna round: R96, puzzle: Same State NG 1)	–	–	–	–	14.5	–
ACGCAGCUGGGUGAGGAUAUUGGUGGUACAACAUGAGGAUCACCCAUGUCCGAAGCUCGGACCCUCGAGAAGGCGCCCGGCUGCG [Soinraesar Omei Mod 5] (puzzle: Same State 2)	122	17.2	62	–	–	–
UAAUUAAAGCAAGGAUAUCACGUCGUUUAGACGUGAGAAGGUGCUCCUUACAUGAGGAUCACCCAUGUAUAACAUGAAUAAUUA [SSNG1/10-B3] (Eterna round: R96, puzzle: Same State NG 1)	–	–	–	170	517	656
GGAAAGAGGUUAGGAUAUGCAUGUUUGGGACAUGAGGAUCACCCAUGUAAUAGAAGAAAUCUACAGUAGAAGGGACAAGGAAGG [AK SSNG2-V2-6.1] (Eterna round: R96, puzzle: Same State NG 2)	–	–	–	152	72.9	170
AAGAAACAUGAGGAUCACCCAUGUGAUAAUAUGGGAGGAUAUACAAAGACGAAAGUCGAAGUAGAAGGCCUAUGAA [Garnet 43] (Eterna round: R96, puzzle: Same State 1)	–	–	–	46.4	50.9	68.7
GUGGUCAGACAUGAGGAUCACCCAUGUGGAAUAAAUAAGGCAUAGGAUAUGAAAUAUAGGAUAUAUCAGAAGGAUGGGUUGGUG (Eterna round: R96, puzzle: Same State NG 3)	–	–	–	–	131	–
